T1: midkine (full-length) (Homo sapiens, UniProt P21741 P21741:23-143)
T1 sequence: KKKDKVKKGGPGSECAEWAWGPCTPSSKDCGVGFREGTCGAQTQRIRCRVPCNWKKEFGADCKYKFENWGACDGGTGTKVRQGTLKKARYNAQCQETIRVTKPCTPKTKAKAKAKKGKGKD


Key:
midkine (full-length) [1] = target: T1, midkine (full-length); experiment: cell_activity; 500 nM RNA; conditions: tags: expressed in yeast
Description: (§1) 30 μL of 1.5 μM midkine was applied to the outer surface of the membrane of Chemotaxicell (membrane pore diameter 8 μm, manufactured by Kurabo) to immobilize the midkine to the outer surface of the membrane. The midkine-immobilized Chemotaxicell was placed on a 24-well culture plate containing 500 μL of a medium (supplemented with 0.3% bovine serum albumin, Dulbecco's Modified Eagle's medium) supplemented with each RNA aptamer added thereto at 100 nM. 200 μL of UMR106 cells were placed in the inner layer of the Chemotaxicell chamber at a density of 1×10⁶ cells/mL, and cultured at 37° C. for 4 hours. The cells remaining in the inner layer of the Chemotaxicell chamber were removed, and the cells that had infiltrated and adhered to the midkine-applied surface were fixed with methanol. The Chemotaxicell chamber was immersed in a 1% aqueous solution of Crystal Violet for 30 minutes to stain the cells. After the Chemotaxicell chamber was washed with distilled water and dried, the pigment was extracted with a mixed solution of 200 μL of 1% SDS and 1% triton X100. 150 μL of the extract was transferred to a 96-well microplate, and its absorbance at 590 nm was determined.
(§2) The aptamer shown by SEQ ID NO:5 is 77 nucleotides long, having the 2′-position of the ribose of the pyrimidine nucleotide fluoro-substituted. To enable the chemical synthesis, to reduce the toxicity, and to improve the stability in the blood, miniaturization and stabilization of this aptamer were performed. The operations of miniaturization and stabilization were performed on the basis of the secondary structure estimated by the MFOLD program, and the activity was evaluated by a cell migration inhibition experiment. The RNA concentration in the cell migration inhibition experiment was 100 nM or 500 nM. Since some errors occur in experimental results depending on cell condition, a previously assayed sample was included as a positive control in each measurement.

midkine (full-length) [2] = target: T1, midkine (full-length); experiment: cell_activity; 500 nM RNA; conditions: tags: expressed in yeast; remark: listed apart in the source
Description: as §1, with “Chem. 276 (19), 15868-15875, 2001). […] 30 μL” for “30 μL”
as §2, with “SEQ ID NO:4 is 77” for “SEQ ID NO:5 is 77”, “having the 2′ position of the” for “having the 2′-position of the”, “pyrimidine nucleotide thereof fluoro-substituted. To” for “pyrimidine nucleotide fluoro-substituted. To”, “inhibition experiment. In the cell” for “inhibition experiment. The RNA concentration in the cell”, “migration inhibition experiment, the RNA concentration was 100” for “migration inhibition experiment was 100”

| Binder | activity (midkine (full-length) [1]) | activity (midkine (full-length) [2]) |
| --- | --- | --- |
| GGGAGAGGAGAAGAGGAAGUGUGCACAGGGGUGGUGUCGGGUGCAUAC (ssRNA, 2'-F pyrimidines) [SEQ ID NO:47] | 84 % of SEQ 40 inhibition |  |
| GGGAGAGGAGAAGAGGAAGUGUGCACAGGGGUUGUGUCGGGUGCAUAC (ssRNA, 2'-F pyrimidines) [SEQ ID NO:48] | 60 % of SEQ 40 inhibition |  |
| GGGAGAGGAGAAGAGGAAGUGUGCACAGGGGUUGGGUCGGGUGCAUAC (ssRNA, 2'-F pyrimidines) [SEQ ID NO:49] | 69 % of SEQ 40 inhibition |  |
| GGGAGAGGAACGCUACGAGGAGUAGCCGGAAAGAAGGCGGCGUAGC (ssRNA, 2'-F pyrimidines) [SEQ ID NO:17] |  | 68 % of SEQ 4 inhibition |
| GGGAGAGGAGGAGGAAGUGCACAGGGGUUGGUGUCGGGUGCAC (ssRNA, 2'-F pyrimidines) [SEQ ID NO:55] | 100 % of SEQ 40 inhibition |  |
| GGGAGAGGAGAAGGAAGUGCACAGGGGUUGGUGUCGGGUGCAC (ssRNA, 2'-F pyrimidines) [SEQ ID NO:56] | 100 % of SEQ 40 inhibition |  |
| GGGAGAGGAGAAGAGGGUGCACAGGGGUUGGUGUCGGGUGCAC (ssRNA, 2'-F pyrimidines) [SEQ ID NO:58] | 100 % of SEQ 40 inhibition |  |
| GGGAAGGAAAGAGGAAGUGCACAGGGGUUGGUGUCGGGUGCAC (ssRNA, 2'-F pyrimidines) [SEQ ID NO:50] | 91 % of SEQ 40 inhibition |  |
| GGGAGAGGAGAAGAAAGUGCACAGGGGUUGGUGUCGGGUGCAC (ssRNA, 2'-F pyrimidines) [SEQ ID NO:57] | 100 % of SEQ 40 inhibition |  |
| SEQ ID NO:14 (ssRNA, 2'-F pyrimidines) RNA: GGGAGAGGAGAAGAGGAACGCUACGAGGAGUAGCCGGAAAGAAGGCGGCGUAGC |  | 100 % of SEQ 4 inhibition |
| SEQ ID NO:9 (ssRNA, 2'-F pyrimidines) RNA: GGGAGAGGAGAAGAGGAACGUGCUCUGUACGCCGGAAAGAAGGUGUGUAGAGGACAGGAAUGAGGA |  | 57 % of SEQ 4 inhibition |
| SEQ ID NO:6 (ssRNA, 2'-F pyrimidines) RNA: GGGAGAGGAGAAGAGGAACGUGCUCUGUACGAGGAGUAGCCGGAAAGAAGGCGGUGUGUAGAGGACA |  | 110 % of SEQ 4 inhibition |
| GGGAAGGAGUGCACAGGGGUUGGUGUCGGGUGCAC (ssRNA, 2'-F pyrimidines) [SEQ ID NO:60] | 70 % of SEQ 40 inhibition |  |
| GGGUGCACAGGGGUUGGUGUCGGGUGCAC (ssRNA, 2'-F pyrimidines) [SEQ ID NO:59] | 53 % of SEQ 40 inhibition |  |
| GGGAGAGGAGAAGAGGAAGUUGCACAGGGGUUGGUGUCGGGUGCAAC (ssRNA, 2'-F pyrimidines) [SEQ ID NO:44] | 100 % of SEQ 40 inhibition |  |
| SEQ ID NO:12 (ssRNA, 2'-F pyrimidines) RNA: GGGAGAGGAGAAGAGGAACGCUGCACGAGGAGUAGCCGGAAAGAAGGCGGCGUGCAGC |  | 100 % of SEQ 4 inhibition |
| SEQ ID NO:8 (ssRNA, 2'-F pyrimidines) RNA: GGGAGAGGAGAAGAGGAACGCUGUACGAGGAGUAGCCGGAAAGAAGGCGGUGUGUAGCAGGAAUGAGGA |  | 100 % of SEQ 4 inhibition |
| SEQ ID NO:7 (ssRNA, 2'-F pyrimidines) RNA: GGGAACGUGCUCUGUACGAGGAGUAGCCGGAAAGAAGGCGGUGUGUAGAGGACAGGAAUGAGGA |  | 91 % of SEQ 4 inhibition |
| SEQ ID NO:16 (ssRNA, 2'-F pyrimidines) RNA: GGGAGAGGAGAAGAGGAACGCUGCACGAGGGUAGCCGGAAAGAAGGCGGCGUGCAGC |  | 61 % of SEQ 4 inhibition |
| SEQ ID NO:51 (ssRNA, 2'-F pyrimidines) RNA: GGGAAGGAGAGAGGAAGUGCACAGGGGUUGGUGUCGGGUGCACAGUAUAAG | 100 % of SEQ 40 inhibition |  |

| Binder | activity (midkine (full-length) [1]) | activity (midkine (full-length) [2]) |
| --- | --- | --- |
| SEQ ID NO:53 (ssRNA, 2'-F pyrimidines) RNA: GGGAAGGAAAGAGGAAGUGCACAGGGGUUGGUGUCGGGUGCACAGUAUAAG | 100 % of SEQ 40 inhibition |  |
| SEQ ID NO:52 (ssRNA, 2'-F pyrimidines) RNA: GGAAGGAGAAGAGGAAGUGCACAGGGGUUGGUGUCGGGUGCACAGUAUAAG | 100 % of SEQ 40 inhibition |  |
| GGGAGAGGAACGCUGCACGAGGAGUAGCCGGAAAGAAGGCGGCGUGCAGC (ssRNA, 2'-F pyrimidines) [SEQ ID NO:13] |  | 100 % of SEQ 4 inhibition |
| SEQ ID NO:10 (ssRNA, 2'-F pyrimidines) RNA: GGGAGAGGAGAAGAGGAACGUGCUCUGUACGAGGAGUAGCCGAAAGGCGGUGUGUAGAGGACAGGAAUGAGGA |  | 81 % of SEQ 4 inhibition |
| GGGAGAGGAACGUACGAGGAGUAGCCGGAAAGAAGGCGGCGUAC (ssRNA, 2'-F pyrimidines) [SEQ ID NO:19] |  | 94 % of SEQ 4 inhibition |
| GGAAGGAGGAAGUGCACAGGGGUUGGUGUCGGGUGCAC (ssRNA, g(F)g(F)a(M)a(M)g(F)g(F)a(M)g(F)g(F)a(M)a(M)g(M)u(F)g(M)c(F)a(M)c(F)a(M)gg(M)g(M)g(M)u(F)u(F)g(M)g(M)u(F)g(M)u(F)c(F)g(F)g(F)g(M)u(F)g(M)c(F)a(M)c(F); F=2'-F M=2'-OMe) [SEQ ID NO:66] | 51 % of SEQ 40 inhibition |  |
| GGAAGGAGGAAGUGCACAGGGGUUGGUGUCGGGUGCAC (ssRNA, gga(M)a(M)gga(M)gga(M)a(M)g(M)u(F)g(M)c(F)a(M)c(F)aggg(M)g(M)u(F)u(F)g(M)g(M)u(F)g(M)u(F)c(F)gggu(F)g(M)c(F)a(M)c(F); F=2'-F M=2'-OMe) [SEQ ID NO:67] | 110 % of SEQ 40 inhibition |  |
| GGGAGAGGAGAAGAGGAAGUGCACAGGGGUUGGUGUCGGGUGCAC (ssRNA, 2'-F pyrimidines; 5' single strand (nt 1-18) all G 2'-F and all A 2'-OMe) [SEQ ID NO:54] | 100 % of SEQ 40 inhibition |  |
| GGGAGAGGAGAAGAGGAAGUGCACAGGGGUUGGUGUCGGGUGCAC (ssRNA, 2'-F pyrimidines) [SEQ ID NO:45] | 100 % of SEQ 40 inhibition |  |
| GGGAGAGGAGAAGAGGAAGUGCACCCGGGUUGGUGUCGGGUGCAC (ssRNA, 2'-F pyrimidines) [SEQ ID NO:63] | 97 % of SEQ 40 inhibition |  |
| GGGCUACGAGGAGUAGCCGGAAAGAAGGCGGCGUAGC (ssRNA, 2'-F pyrimidines) [SEQ ID NO:18] |  | 88 % of SEQ 4 inhibition |
| GGGAGAGGAGAAGAGGAAGUGCGCGCAGGGGUUGGUGUCGGGCGCGUAC (ssRNA, 2'-F pyrimidines) [SEQ ID NO:46] | 92 % of SEQ 40 inhibition |  |
| SEQ ID NO:11 (ssRNA, 2'-F pyrimidines) RNA: GGGAGAGGAGAAGAGGAACGUGCUCUGCACGAGGAGUAGCCGGAAAGAAGGCGGCGUGCAGAGGACAGGAAUGAGGA |  | 100 % of SEQ 4 inhibition |
| SEQ ID NO:15 (ssRNA, 2'-F pyrimidines) RNA: GGGAGAGGAGAAGAGGAACGCUGCACGAGGAGUAGCCGGAAAGGGCGGCGUGCAGC |  | 75 % of SEQ 4 inhibition |
| GGGAAGGAGGAAGUGCACAGGGGUUGGUGUCGGGUGCAC (ssRNA, 2'-F pyrimidines) [SEQ ID NO:61] | 100 % of SEQ 40 inhibition |  |
| GGGAAGGAGGAAGUGCACAGGGGUUGGAGUCGGGUGCAC (ssRNA, 2'-F pyrimidines; 2'-OMe on part of purines (5' strand A, stem purines, loop G, A28)) [SEQ ID NO:68] | 72 % of SEQ 40 inhibition |  |
| GGGAGAGGAGAAGUGCACAGGGGUUGGUGUCGGGUGCAC (ssRNA, 2'-F pyrimidines) [SEQ ID NO:62] | 44 % of SEQ 40 inhibition |  |
| GGGAAGGAGGAAGUGCACAGGGGUAGGUGUCGGGUGCAC (ssRNA, 2'-F pyrimidines; 2'-OMe on part of purines (5' strand A, stem purines, loop G, A25)) [SEQ ID NO:69] | 60 % of SEQ 40 inhibition |  |
| GGGAAGGAGGAAGUGCACAGGGGAUGGUGUCGGGUGCAC (ssRNA, 2'-F pyrimidines; 2'-OMe on part of purines (5' strand A, stem purines, loop G, A24)) [SEQ ID NO:70] | 110 % of SEQ 40 inhibition |  |

From patent US20100004432, “APTAMER AGAINST MIDKINE AND USE THEREOF” (RIBOMIC INC., published 2010)
